B1: Serine/threonine-protein kinase MRCK alpha (Homo sapiens), Q5VT25 (parent)
chain: MSGEVRLRQLEQFILDGPAQTNGQCFSVETLLDILICLYDECNNSPLRREKNILEYLEWAKPFTSKVKQMRLHREDFEILKVIGRGAFGEVAVVKLKNADKVFAMKILNKWEMLKRAETACFREERDVLVNGDNKWITTLHYAFQDDNNLYLVMDYYVGGDLLTLLSKFEDRLPEDMARFYLAEMVIAIDSVHQLHYVHRDIKPDNILMDMNGHIRLADFGSCLKLMEDGTVQSSVAVGTPDYISPEILQAMEDGKGRYGPECDWWSLGVCMYEMLYGETPFYAESLVETYGKIMNHKERFQFPAQVTDVSENAKDLIRRLICSREHRLGQNGIEDFKKHPFFSGIDWDNIRNCEAPYIPEVSSPTDTSNFDVDDDCLKNSETMPPPTHTAFSGHHLPFVGFTYTSSCVLSDRSCLRVTAGPTSLDLDVNVQRTLDNNLATEAYERRIKRLEQEKLELSRKLQESTQTVQALQYSTVDGPLTASKDLEIKNLKEEIEKLRKQVTESSHLEQQLEEANAVRQELDDAFRQIKAYEKQIKTLQQEREDLNKELVQASERLKNQSKELKDAHCQRKLAMQEFMEINERLTELHTQKQKLARHVRDKEEEVDLVMQKVESLRQELRRTERAKKELEVHTEALAAEASKDRKLREQSEHYSKQLENELEGLKQKQISYSPGVCSIEHQQEITKLKTDLEKKSIFYEEELSKREGIHANEIKNLKKELHDSEGQQLALNKEIMILKDKLEKTRRESQSEREEFESEFKQQYEREKVLLTEENKKLTSELDKLTTLYENLSIHNQQLEEEVKDLADKKESVAHWEAQITEIIQWVSDEKDARGYLQALASKMTEELEALRNSSLGTRATDMPWKMRRFAKLDMSARLELQSALDAEIRAKQAIQEELNKVKASNIITECKLKDSEKKNLELLSEIEQLIKDTEELRSEKGIEHQDSQHSFLAFLNTPTDALDQFERSPSCTPASKGRRTVDSTPLSVHTPTLRKKGCPGSTGFPPKRKTHQFFVKSFTTPTKCHQCTSLMVGLIRQGCSCEVCGFSCHITCVNKAPTTCPVPPEQTKGPLGIDPQKGIGTAYEGHVRIPKPAGVKKGWQRALAIVCDFKLFLYDIAEGKASQPSVVISQVIDMRDEEFSVSSVLASDVIHASRKDIPCIFRVTASQLSASNNKCSILMLADTENEKNKWVGVLSELHKILKKNKFRDRSVYVPKEAYDSTLPLIKTTQAAAIIDHERIALGNEEGLFVVHVTKDEIIRVGDNKKIHQIELIPNDQLVAVISGRNRHVRLFPMSALDGRETDFYKLSETKGCQTVTSGKVRHGALTCLCVAMKRQVLCYELFQSKTRHRKFKEIQVPYNVQWMAIFSEQLCVGFQSGFLRYPLNGEGNPYSMLHSNDHTLSFIAHQPMDAICAVEISSKEYLLCFNSIGIYTDCQGRRSRQQELMWPANPSSCCYNAPYLSVYSENAVDIFDVNSMEWIQTLPLKKVRPLNNEGSLNLLGLETIRLIYFKNKMAEGDELVVPETSDNSRKQMVRNINNKRRYSFRVPEEERMQQRREMLRDPEMRNKLISNPTNFNHIAHMGPGDGIQILKDLPMNPRPQESRTVFSGSVSIPSITKSRPEPGRSMSASSGLSARSSAQNGSALKREFSGGSYSAKRQPMPSPSEGSLSSGGMDQGSDAPARDFDGEDSDSPRHSTASNSSNLSSPPSPASPRKTKSLSLESTDRGSWDP

Variants of: B1
Conditions: with cdc42_human CDC42, P60953
Chain of cdc42_human CDC42, P60953 (P60953 whole entry, looked up): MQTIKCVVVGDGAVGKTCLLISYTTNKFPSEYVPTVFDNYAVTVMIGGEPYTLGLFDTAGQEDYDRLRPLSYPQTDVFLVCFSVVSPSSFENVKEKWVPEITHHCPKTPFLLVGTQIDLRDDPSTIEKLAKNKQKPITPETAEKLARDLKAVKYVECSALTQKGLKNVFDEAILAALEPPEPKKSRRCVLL

| effect of a mutation on the interaction | Variant |
| --- | --- |
| decreasing interaction | H1582A |
| decreasing interaction | H1579A |
